Measurements: article PMC10249821

Target: gp41 of HIV-1 IIIB (HIV-1 IIIB) (UniProt P04578)

Substance	IC50 of inhibition of HIV-1 IIIB infection of MT-4 cells (MTT assay of virus-induced cytopathic effect, 5 days post infection) [µM]
Enfuvirtide Primary Reference Standard (peptide)	0.018
biosynthesized enfuvirtide (peptide)	0.0453
